This is an account of results in paper PMC8511506 (Cell Reports, 2021).

B1: CYLD CAP-Gly3 (aa 460-582) (domain or fragment, human, UniProt Q9NQC7 460-582, looked up)
chain: LAMPPGNSHGLEVGSLAEVKENPPFYGVIRWIGQPPGLNEVLAGLELEDECAGCTDGTFRGTRYFTCALKKALFVKLKSCRPDSRFASLQPVSNQIERCNSLAFGGYLSEVVEENTPPKMEKE
notes: CYLD, human, third CAP-Gly domain with flanking residues, aa 460-582; 15N- or 15N,13C-labelled where it was the observed protein in NMR; also called pOPINS-CYLD 460-582; source: E. coli Rosetta2 (DE3) pLacI, purified (HisTrap, anion exchange, SEC)
B2: CYLD CAP-Gly2 (aa 226-313) (domain or fragment, human, UniProt Q9NQC7 226-313, looked up)
chain: ELPPLEINSRVSLKVGETIESGTVIFCDVLPGKESLGYFVGVDMDNPIGNWDGRFDGVQLCSFACVESTILLHINDIIPALSESVTQE
notes: CYLD, human, second CAP-Gly domain, aa 226-313; Isotope-labelled where it was the observed protein in NMR; also called pOPINS-CYLD 226-313; source: E. coli Rosetta2 (DE3) pLacI, purified (HisTrap, anion exchange, SEC)
B3: CYLD CAP-Gly3 (aa 467-565), crystal form 2 (domain or fragment, human, UniProt Q9NQC7 467-565, looked up)
chain: SHGLEVGSLAEVKENPPFYGVIRWIGQPPGLNEVLAGLELEDECAGCTDGTFRGTRYFTCALKKALFVKLKSCRPDSRFASLQPVSNQIERCNSLAFGG
notes: also called CAP-Gly3 (467-565); source: E. coli Rosetta2 (DE3) pLacI, purified (HisTrap, anion exchange, SEC)
B4: NEMO ZnF domain (aa 383-419) (domain or fragment, UniProt Q9Y6K9 383-419, looked up)
chain: SQRRSPPEEPPDFCCPKCQYQAPDMDTLQIHVMECIE
notes: NEMO/IKKγ, zinc finger domain, aa 383-419; Expression and purification of this construct are not described; also called NEMO/IKKγ; pOPINB-NEMO 383-419
B5: CYLD CAP-Gly3 (aa 467-552), crystal form 1 (domain or fragment, human, UniProt Q9NQC7 467-552, looked up)
chain: SHGLEVGSLAEVKENPPFYGVIRWIGQPPGLNEVLAGLELEDECAGCTDGTFRGTRYFTCALKKALFVKLKSCRPDSRFASLQPVS
notes: CYLD, human, third CAP-Gly domain extended C-terminally, aa 467-552 (the crystallisation methods say 465-552); also called CAP-Gly3 (467-552); source: E. coli Rosetta2 (DE3) pLacI, purified (HisTrap, anion exchange, SEC)

Holding throughout (conditions): both partners purified
Assay [1] has as its target T1, Ubiquitin (UniProt P0CG47 1-76).
T1 construct: ubiquitin (mono-ubiquitin), the cut product of the ubiquitin precursors; 15N-labelled in the Ub-observed NMR experiments, unlabelled in ITC, crystallisation and the CAP-Gly-observed NMR
The assay can be described thus: NMR titration; 15N-labelled Ub observed (BEST-TROSY, weighted chemical shift perturbations), unlabelled CAP-Gly domain added (3-fold molar excess for CAP-Gly3); 298 K; 20 mM Tris pH 7.4, 100 mM NaCl, 4 mM DTT.

In assay [2] the target is T1, Ubiquitin. Description: crystal structure; CAP-Gly3 co-crystallised with 1.1 molar excess of Ub, sitting-drop vapor diffusion; molecular replacement.
Assay [3] concerns the target T2, CYLD CAP-Gly3 L475P (aa 467-582) (human, UniProt Q9NQC7 467-582, L475P).
T2 construct: CYLD, human, third CAP-Gly domain, aa 467-582, with L475P; Isotope-labelled for NMR; also called pOPINS-CYLD 467-582 L475P; source: E. coli Rosetta2 (DE3) pLacI, purified (HisTrap, anion exchange, SEC)
T2 sequence (looked up): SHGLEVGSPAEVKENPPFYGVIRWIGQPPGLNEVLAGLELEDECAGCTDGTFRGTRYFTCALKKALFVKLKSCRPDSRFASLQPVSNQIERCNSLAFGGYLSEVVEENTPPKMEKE
Description: NMR titration; isotope-labelled CAP-Gly domain or variant observed (BEST-TROSY, chemical shift perturbations), unlabelled partner added (Ub at 3-fold molar excess, or NEMO ZnF); 298 K; 20 mM Tris pH 7.4, 100 mM NaCl, 4 mM DTT.

In assay [4] the target is B1. The description is as above.

As to B1, the binding result with Ubiquitin [1] is listed as “binds”.

Consider B2, for which the binding result with Ubiquitin [1] is recorded as “binds”.

As for B3, the binding result with Ubiquitin [2] was “binds”.

Turning to B4, the binding result in assay [3] and in assay [4] was “binds” in each case.

As for B5, the binding result with Ubiquitin [2] is given as “binds”.
